Source: paper PMC10575581 (Science Advances, 2023)

Target: the molecule itself
Assay: cryo-EM structure; Der^Δ-p97^Δ complex from Sf9 with ATP·BeFx added through the whole purification; closed class 3.65 Å and open (state U) class 4.51 Å

B1: human Derlin-1 Δ215–239, C-terminal twin strep tag (Sf9) (natural protein, UniProt Q9BUN8-1 1-251, looked up)
chain: MSDIGDWFRSIPAITRYWFAATVAVPLVGKLGLISPAYLFLWPEAFLYRFQIWRPITATFYFPVGPGTGFLYLVNLYFLYQYSTRLETGAFDGRPADYLFMLLFNWICIVITGLAMDMQLLMIPLIMSVLYVWAQLNRDMIVSFWFGTRFKACYLPWVILGFNYIIGGSVINELIGNLVGHLYFFLMFRYPMDLGGRNFLSTPQFLYRWLPSRRHNWGQGFRLGDQ
notes: Derlin-1, human, cDNA NCBI NM_024295.6, whole protein with residues 215 to 239 (loop between TM6 and the SHP box) deleted; a PreScission Protease cleavage site stands before the C-terminal twin strep tag; Cleavage of the tag is not described; also called Der^Δ; truncated Derlin-1; source: Sf9, baculovirus (pFastBac-Dual), coexpressed with p97 Δ1–20, co-purified (Strep-Tactin, SEC in GDN); not …
stoichiometry N: 4
